Patent US20220017612A1 (TILOS THERAPEUTICS, published 2022)

Each binder was assayed against biotinylated human LAP-TGFβ1 (Example 14) (human, UniProt P01137 30-390, biotinylated, sites not stated) (assay: BLI, antigen on tip, CHO supernatant; ratio to wild type).
Description: A total of 49 single alanine substitutions were made in the heavy and light chain CDRs of the antibody to identify critical residues for human LAP-TGFβ1 binding. In addition, residue A25 in the light chain was substituted with glycine. Plasmid DNA for these variants was transfected into ExpiCHO cells in 1 mL cultures on 24-well plates, along with wells containing no DNA (negative control) and wells transfected with DNA for the wild-type antibody (positive control). IgG concentrations in each well were determined by binding to Protein A-functionalized tips. Tips were dipped into wells containing the supernatants from each culture. IgG concentrations were determined by comparing the rate of signal change for each well against the rate of signal change for a standard curve of purified 20E6_H0.2aL1_hIgG1 antibody diluted into ExpiCHO media. CHO supernatants were diluted to 0.6 μg/mL in media. A streptavidin-functionalized tip was equilibrated in binding buffer (10 mM sodium phosphate, 150 mM sodium chloride, 1% (w/v) bovine serum albumin, 0.05% (w/v) sodium azide, pH 7.4) and then dipped in a 5 μg/mL solution of biotinylated human LAP-TGFβ1 in binding buffer for 60 seconds to load the tip with antigen. The antigen-loaded tip was then washed in binding buffer and placed in the diluted CHO supernatant. The antigen was allowed to bind to antibody for 5 minutes (association phase), and then the tip was moved to binding buffer (dissociation phase). The association and dissociation phases were fit to a 1:1 binding model to determine binding rate constants.

Sequence of biotinylated human LAP-TGFβ1 (Example 14) (P01137 30-390 limits assumed): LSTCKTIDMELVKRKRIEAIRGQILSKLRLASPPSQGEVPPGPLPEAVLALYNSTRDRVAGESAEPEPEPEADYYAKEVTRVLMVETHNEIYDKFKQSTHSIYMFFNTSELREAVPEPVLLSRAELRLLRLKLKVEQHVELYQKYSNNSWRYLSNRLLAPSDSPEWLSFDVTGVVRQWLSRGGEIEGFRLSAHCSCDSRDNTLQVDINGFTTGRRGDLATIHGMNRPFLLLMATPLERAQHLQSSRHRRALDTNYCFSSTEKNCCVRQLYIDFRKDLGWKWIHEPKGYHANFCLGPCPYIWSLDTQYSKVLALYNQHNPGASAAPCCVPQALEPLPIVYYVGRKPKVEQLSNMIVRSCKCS

KD,WT/KD,Ala | Binder
0.8 | 20E6_H0.2aL1_hIgG1 VL_T51A (antibody, V domains shown) VH: EVQLVQSGAEVKKPGASVKVSCKASGYTFTSYWMHWVRQAPGQGLEWMGRIDPQSGGIKYAQKFQGRATLTVDTSTSTAYMELSRLRSDDTAVYYCARWDYGGYFDVWGQGTLVTVSS VL: DIQMTQSPSSLSASVGDRVTITCRASQDITNYLNWYQQKPGKAVKLLIYYASRLHSGVPSRFSGSGSGTDYTLTISSLQPEDFATYFCQQGDTLPWTFGQGTKLEIKR
0.64 | 20E6_H0.2aL1_hIgG1 VL_T93A (antibody, V domains shown) VH: EVQLVQSGAEVKKPGASVKVSCKASGYTFTSYWMHWVRQAPGQGLEWMGRIDPQSGGIKYAQKFQGRATLTVDTSTSTAYMELSRLRSDDTAVYYCARWDYGGYFDVWGQGTLVTVSS VL: DIQMTQSPSSLSASVGDRVTITCRASQDITNYLNWYQQKPGKAVKLLIYYTSRLHSGVPSRFSGSGSGTDYTLTISSLQPEDFATYFCQQGDALPWTFGQGTKLEIKR

Further lines, the binder ahead of its results:

Binder | KD,WT/KD,Ala
20E6_H0.2aL1_hIgG1 VH_Y27A (antibody, V domains shown) VH: EVQLVQSGAEVKKPGASVKVSCKASGATFTSYWMHWVRQAPGQGLEWMGRIDPQSGGIKYAQKFQGRATLTVDTSTSTAYMELSRLRSDDTAVYYCARWDYGGYFDVWGQGTLVTVSS VL: DIQMTQSPSSLSASVGDRVTITCRASQDITNYLNWYQQKPGKAVKLLIYYTSRLHSGVPSRFSGSGSGTDYTLTISSLQPEDFATYFCQQGDTLPWTFGQGTKLEIKR | 1.29
20E6_H0.2aL1_hIgG1 VL_L54A (antibody, V domains shown) VH: EVQLVQSGAEVKKPGASVKVSCKASGYTFTSYWMHWVRQAPGQGLEWMGRIDPQSGGIKYAQKFQGRATLTVDTSTSTAYMELSRLRSDDTAVYYCARWDYGGYFDVWGQGTLVTVSS VL: DIQMTQSPSSLSASVGDRVTITCRASQDITNYLNWYQQKPGKAVKLLIYYTSRAHSGVPSRFSGSGSGTDYTLTISSLQPEDFATYFCQQGDTLPWTFGQGTKLEIKR | 0.1
20E6_H0.2aL1_hIgG1 VL_R24A (antibody, V domains shown) VH: EVQLVQSGAEVKKPGASVKVSCKASGYTFTSYWMHWVRQAPGQGLEWMGRIDPQSGGIKYAQKFQGRATLTVDTSTSTAYMELSRLRSDDTAVYYCARWDYGGYFDVWGQGTLVTVSS VL: DIQMTQSPSSLSASVGDRVTITCAASQDITNYLNWYQQKPGKAVKLLIYYTSRLHSGVPSRFSGSGSGTDYTLTISSLQPEDFATYFCQQGDTLPWTFGQGTKLEIKR | 0.01
20E6_H0.2aL1_hIgG1 VL_R53A (antibody, V domains shown) VH: EVQLVQSGAEVKKPGASVKVSCKASGYTFTSYWMHWVRQAPGQGLEWMGRIDPQSGGIKYAQKFQGRATLTVDTSTSTAYMELSRLRSDDTAVYYCARWDYGGYFDVWGQGTLVTVSS VL: DIQMTQSPSSLSASVGDRVTITCRASQDITNYLNWYQQKPGKAVKLLIYYTSALHSGVPSRFSGSGSGTDYTLTISSLQPEDFATYFCQQGDTLPWTFGQGTKLEIKR | 0.02
20E6_H0.2aL1_hIgG1 VL_N31A (antibody, V domains shown) VH: EVQLVQSGAEVKKPGASVKVSCKASGYTFTSYWMHWVRQAPGQGLEWMGRIDPQSGGIKYAQKFQGRATLTVDTSTSTAYMELSRLRSDDTAVYYCARWDYGGYFDVWGQGTLVTVSS VL: DIQMTQSPSSLSASVGDRVTITCRASQDITAYLNWYQQKPGKAVKLLIYYTSRLHSGVPSRFSGSGSGTDYTLTISSLQPEDFATYFCQQGDTLPWTFGQGTKLEIKR | 0.48
20E6_H0.2aL1_hIgG1 VL_I29A (antibody, V domains shown) VH: EVQLVQSGAEVKKPGASVKVSCKASGYTFTSYWMHWVRQAPGQGLEWMGRIDPQSGGIKYAQKFQGRATLTVDTSTSTAYMELSRLRSDDTAVYYCARWDYGGYFDVWGQGTLVTVSS VL: DIQMTQSPSSLSASVGDRVTITCRASQDATNYLNWYQQKPGKAVKLLIYYTSRLHSGVPSRFSGSGSGTDYTLTISSLQPEDFATYFCQQGDTLPWTFGQGTKLEIKR | 0.02
20E6_H0.2aL1_hIgG1 VL_Q89A (antibody, V domains shown) VH: EVQLVQSGAEVKKPGASVKVSCKASGYTFTSYWMHWVRQAPGQGLEWMGRIDPQSGGIKYAQKFQGRATLTVDTSTSTAYMELSRLRSDDTAVYYCARWDYGGYFDVWGQGTLVTVSS VL: DIQMTQSPSSLSASVGDRVTITCRASQDITNYLNWYQQKPGKAVKLLIYYTSRLHSGVPSRFSGSGSGTDYTLTISSLQPEDFATYFCAQGDTLPWTFGQGTKLEIKR | 0.01
20E6_H0.2aL1_hIgG1 VL_T30A (antibody, V domains shown) VH: EVQLVQSGAEVKKPGASVKVSCKASGYTFTSYWMHWVRQAPGQGLEWMGRIDPQSGGIKYAQKFQGRATLTVDTSTSTAYMELSRLRSDDTAVYYCARWDYGGYFDVWGQGTLVTVSS VL: DIQMTQSPSSLSASVGDRVTITCRASQDIANYLNWYQQKPGKAVKLLIYYTSRLHSGVPSRFSGSGSGTDYTLTISSLQPEDFATYFCQQGDTLPWTFGQGTKLEIKR | 1
20E6_H0.2aL1_hIgG1 VL_S52A (antibody, V domains shown) VH: EVQLVQSGAEVKKPGASVKVSCKASGYTFTSYWMHWVRQAPGQGLEWMGRIDPQSGGIKYAQKFQGRATLTVDTSTSTAYMELSRLRSDDTAVYYCARWDYGGYFDVWGQGTLVTVSS VL: DIQMTQSPSSLSASVGDRVTITCRASQDITNYLNWYQQKPGKAVKLLIYYTARLHSGVPSRFSGSGSGTDYTLTISSLQPEDFATYFCQQGDTLPWTFGQGTKLEIKR | 0.12
20E6_H0.2aL1_hIgG1 VH_Y32A (antibody, V domains shown) VH: EVQLVQSGAEVKKPGASVKVSCKASGYTFTSAWMHWVRQAPGQGLEWMGRIDPQSGGIKYAQKFQGRATLTVDTSTSTAYMELSRLRSDDTAVYYCARWDYGGYFDVWGQGTLVTVSS VL: DIQMTQSPSSLSASVGDRVTITCRASQDITNYLNWYQQKPGKAVKLLIYYTSRLHSGVPSRFSGSGSGTDYTLTISSLQPEDFATYFCQQGDTLPWTFGQGTKLEIKR | 1
20E6_H0.2aL1_hIgG1 VL_H55A (antibody, V domains shown) VH: EVQLVQSGAEVKKPGASVKVSCKASGYTFTSYWMHWVRQAPGQGLEWMGRIDPQSGGIKYAQKFQGRATLTVDTSTSTAYMELSRLRSDDTAVYYCARWDYGGYFDVWGQGTLVTVSS VL: DIQMTQSPSSLSASVGDRVTITCRASQDITNYLNWYQQKPGKAVKLLIYYTSRLASGVPSRFSGSGSGTDYTLTISSLQPEDFATYFCQQGDTLPWTFGQGTKLEIKR | 0.33

These binders were tested against T1, human LAP-TGFβ1 overexpressed on cells (human, UniProt P01137 30-390) (assay: flow cytometry; black bar HT1080-huB1, grey bar HT1080).
T1 construct: HT1080 or P3U1 cells overexpressing wild-type human LAP-TGFβ1; also called HT1080-huB1; HT1080-hβ1
T1 sequence (P01137 30-390): as the sequence (P01137 30-390 limits assumed) above

binding result | Binder
no binding | N73D_F87Y (antibody, human IgG1, kappa, V domains shown, label to be rechecked; also called 28G11_H2L3 with HC N73D and LC F87Y) VH: EVQLVESGGGLVQPGGSLRLSCAASGFTFTDYYMSWVRQAPGKGLEWLGFIRNKPNGYTTEYSASVKGRFTISRDDSQSSLYLQMNSLKTEDTAVYYCARYTGGGYFDYWGQGTLLTVSS VL: DIQMTQSPSSLSASVGDRLTISCRASQDISNYLNWYQQKPGKTVKLLIYYTSRLHSGVPSRFSGSGSGTDYTLTISSLQPEDVATYYCQQGDTLPWTFGQGTKLEIKR
binds | L109V_T43V (antibody, human IgG1, kappa, V domains shown, also called 28G11_H2L3 with HC L109V and LC T43V) VH: EVQLVESGGGLVQPGGSLRLSCAASGFTFTDYYMSWVRQAPGKGLEWLGFIRNKPNGYTTEYSASVKGRFTISRDNSQSSLYLQMNSLKTEDTAVYYCARYTGGGYFDYWGQGTLVTVSS VL: DIQMTQSPSSLSASVGDRLTISCRASQDISNYLNWYQQKPGKVVKLLIYYTSRLHSGVPSRFSGSGSGTDYTLTISSLQPEDVATYFCQQGDTLPWTFGQGTKLEIKR
binds | L109V_F87Y (antibody, human IgG1, kappa, V domains shown, also called 28G11_H2L3 with HC L109V and LC F87Y) VH: EVQLVESGGGLVQPGGSLRLSCAASGFTFTDYYMSWVRQAPGKGLEWLGFIRNKPNGYTTEYSASVKGRFTISRDNSQSSLYLQMNSLKTEDTAVYYCARYTGGGYFDYWGQGTLVTVSS VL: DIQMTQSPSSLSASVGDRLTISCRASQDISNYLNWYQQKPGKTVKLLIYYTSRLHSGVPSRFSGSGSGTDYTLTISSLQPEDVATYYCQQGDTLPWTFGQGTKLEIKR
binds | L48V_WT (antibody, human IgG1, kappa, V domains shown, also called 28G11_H2L3 with HC L48V) VH: EVQLVESGGGLVQPGGSLRLSCAASGFTFTDYYMSWVRQAPGKGLEWVGFIRNKPNGYTTEYSASVKGRFTISRDNSQSSLYLQMNSLKTEDTAVYYCARYTGGGYFDYWGQGTLLTVSS VL: DIQMTQSPSSLSASVGDRLTISCRASQDISNYLNWYQQKPGKTVKLLIYYTSRLHSGVPSRFSGSGSGTDYTLTISSLQPEDVATYFCQQGDTLPWTFGQGTKLEIKR
binds | L48V_F87Y (antibody, human IgG1, kappa, V domains shown, also called 28G11_H2L3 with HC L48V and LC F87Y) VH: EVQLVESGGGLVQPGGSLRLSCAASGFTFTDYYMSWVRQAPGKGLEWVGFIRNKPNGYTTEYSASVKGRFTISRDNSQSSLYLQMNSLKTEDTAVYYCARYTGGGYFDYWGQGTLLTVSS VL: DIQMTQSPSSLSASVGDRLTISCRASQDISNYLNWYQQKPGKTVKLLIYYTSRLHSGVPSRFSGSGSGTDYTLTISSLQPEDVATYYCQQGDTLPWTFGQGTKLEIKR
binds | L48V_V44P (antibody, human IgG1, kappa, V domains shown, also called 28G11_H2L3 with HC L48V and LC V44P) VH: EVQLVESGGGLVQPGGSLRLSCAASGFTFTDYYMSWVRQAPGKGLEWVGFIRNKPNGYTTEYSASVKGRFTISRDNSQSSLYLQMNSLKTEDTAVYYCARYTGGGYFDYWGQGTLLTVSS VL: DIQMTQSPSSLSASVGDRLTISCRASQDISNYLNWYQQKPGKTPKLLIYYTSRLHSGVPSRFSGSGSGTDYTLTISSLQPEDVATYFCQQGDTLPWTFGQGTKLEIKR
